The record followed here is patent EP4541822A2 (Tsinghua University, dated 2025).

B1: recombinant protein (SIM)6-R4L (other)
chain: MKHHHHHHHENLYFQGAMSSKVDVIDLTIESSSDEEEDPPAKRGGSGGSGGSGGSKVDVIDLTIESSSDEEEDPPAKRGGSGGSGGSGGSKVDVIDLTIESSSDEEEDPPAKRGAMKGGSGGSGGSGGSMSSKVDVIDLTIESSSDEEEDPPAKRGGSVGSGGSGGSKVDVIDLTIESSSDEEEDPPAKRGGSGGSGGRGGSKVDVIDLTIESSSDEEEDPPAKRGAMRCWGGSGGSGGSGGSMGMCYRKCRGGRRWCYQKCGGSGGSGGSGGS
notes: also called (SIM)6-R4L (Red)
B2: recombinant protein (SIM)6-CNB (other)
chain: MKHHHHHHHENLYFQGAMSSKVDVIDLTIESSSDEEEDPPAKRGGSGGSGGSGGSKVDVIDLTIESSSDEEEDPPAKRGGSGGSGGSGGSKVDVIDLTIESSSDEEEDPPAKRGAMKGGSGGSGGSGGSMSSKVDVIDLTIESSSDEEEDPPAKRGGSVGSGGSGGSKVDVIDLTIESSSDEEEDPPAKRGGSGGSGGRGGSKVDVIDLTIESSSDEEEDPPAKRGAMRCWGGSGGSGGSGGSMGEVQLMESGGGLVQAGGSLRLSCAASGRTFNNYAMGWFRRAPKGEREFVAAITRSGVRSGVSAIYGDSVKDRFTISRDNAKNTLYLQMNSLKPEDTAVYTCAASAIGSGALRRFEYDYSGQGTQVTVSS
notes: The entry also holds a 7xHis tag and TEV site; Labelled with Alexa594 for imaging; also called (SIM)6-CNB (Red)
B3: recombinant protein (SIM)3-CNB (other)
chain: MKHHHHHHHENLYFQGAMKVDVIDLTIESSSDEEEDPPAKRGGSGGSGGSGGSMMKVDVIDLTIESSSDEEEDPPAKRGGSGGSGGSGGSMMKVDVIDLTIESSSDEEEDPPAKRGGSGGSGGSGGSMGEVQLMESGGGLVQAGGSLRLSCAASGRTFNNYAMGWFRRAPKGEREFVAAITRSGVRSGVSAIYGDSVKDRFTISRDNAKNTLYLQMNSLKPEDTAVYTCAASAIGSGALRRFEYDYSGQGTQVTVSS
notes: The entry also holds a 7xHis tag and TEV site; Red-labelled for imaging; also called (SIM)3-CNB (Red)
B4: recombinant protein (PRMH)5-CNB (other)
chain: MKHHHHHHHENLYFQGHMKGGSWGGSKKTPPPVPPRTTSKGGSGGSGGSGGSKKTPPPVPPRTTSKGGSGGSGGSGGSKKTPPPVPPRTTSKGGSGGSGGSGGSKKTPPPVPPRTTSKGGSGGSGGSGGSKKTPPPVPPRTTSKGGSGSKNLYFQGGSGGSGGSGGSMEVQLMESGGGLVQAGGSLRLSCAASGRTFNNYAMGWFRRAPKGEREFVAAITRSGVRSGVSAIYGDSVKDRFTISRDNAKNTLYLQMNSLKPEDTAVYTCAASAIGSGALRRFEYDYSGQGTQVTVSS
notes: The entry also holds a 7xHis tag and TEV site; Labelled with Alexa594; also called (PRMH)5-CNB (Red)
B5: recombinant protein (SH3)5-DNB (other)
chain: MKHHHHHHHENLYFQGHMDLNMPAYVKFNYMAEREDELSLIKGTKVIVMEKSSDGWWRGSYNGQVGWFPSNYVTEEGDSPLASGAGGSEGGGSEGGTSGATDLNMPAYVKFNYMAEREDELSLIKGTKVIVMEKSSDGWWRGSYNGQVGWFPSNYVTEEGDSPLASGAGGSEGGGSEGGTSGATHMDLNMPAYVKFNYMAEREDELSLIKGTKVIVMEKSSDGWWRGSYNGQVGWFPSNYVTEEGDSPLASGAGGSEGGGSEGGTSGATDLNMPAYVKFNYMAEREDELSLIKGTKVIVMEKSSDGWWRGSYNGQVGWFPSNYVTEEGDSPLASGAGGSEGGGSEGGTSGATDLNMPAYVKFNYMAEREDELSLIKGTKVIVMEKSSDGWWRGSYNGQVGWFPSNYVTEEGDSPLGGSGGSGGSGGSMEVQLLESGGGLVQPGGSLRLSCAASGTFDKINNMGWYRQAPGKQRDLVAQITPGGITDYADSVKGRFTISRDNSKNTLYLQMNSLRPEDTAVYYCNAEILKRAYIDVYVNYWGQGTLVTVSS

Assay [1] deals with T1, multivalent domain (SUM)5.
T1 construct: Labelled with Alexa647 for imaging; also called (SUM)5 (Green)
Description: confocal imaging of SJSA-1 cells, (SIM)6-R4L (Red) plus (SUM)5 (Green), 100 nM each (Fig. 2A).

Assay [2] addresses T2, CXC motif chemokine receptor 4 (CXCR4) (human, UniProt P61073 1-352).
T2 construct: whole, on cells; Endogenous receptor on human tumour cell lines; also called chemokine receptor CXCR4
Put plainly: confocal imaging of SJSA-1 cells; membrane puncta with the ligand fusions, none with the multivalent domains alone.

Assay [3] addresses T3, recombinant protein (SUM)5-DNB.
T3 construct: The entry also holds a 7xHis tag and TEV site; Labelled with Alexa647 for imaging; also called (SUM)5-DNB (Green)
Put plainly: fluorescence imaging of SJSA-1 cells, 100 nM (Figs. 3A, 3B).

For assay [4], the target named is T2, CXC motif chemokine receptor 4 (CXCR4). Put plainly: fluorescence imaging of SJSA-1 cells with anti-CXCR4 immunostaining (Figs. 3A, 3B).
In assay [5] the target is T4, recombinant protein (SUM)3-DNB.
T4 construct: The entry also holds a 7xHis tag and TEV site; Green-labelled for imaging; unlabelled in the apoptosis assays; also called (SUM)3-DNB (Green)
Description: fluorescence imaging of SJSA-1 cells (Figs. 5A, 5B).

Assay [6] has as its target T2, CXC motif chemokine receptor 4 (CXCR4). Description: fluorescence imaging of SJSA-1 cells with anti-CXCR4 immunostaining (Figs. 5A, 5B).
For assay [7], the target named is B5. Description: confocal imaging of SJSA-1 cells, 100 nM each (Fig. 9A).
The target in another assay is death receptor 5 (DR5) (human, UniProt O14763 56-440). Put plainly: cell-based or functional assay.

T2 sequence (P61073 whole entry): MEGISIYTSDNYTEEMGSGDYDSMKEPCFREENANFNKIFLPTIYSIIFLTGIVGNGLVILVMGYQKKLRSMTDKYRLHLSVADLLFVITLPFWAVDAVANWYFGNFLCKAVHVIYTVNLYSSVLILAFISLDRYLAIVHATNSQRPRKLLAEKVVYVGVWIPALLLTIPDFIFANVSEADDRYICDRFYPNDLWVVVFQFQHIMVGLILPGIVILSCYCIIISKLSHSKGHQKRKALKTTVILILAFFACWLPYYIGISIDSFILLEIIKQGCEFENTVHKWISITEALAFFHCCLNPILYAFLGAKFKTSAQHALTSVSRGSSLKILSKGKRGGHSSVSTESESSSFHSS
T1 sequence (chain, as listed by the source): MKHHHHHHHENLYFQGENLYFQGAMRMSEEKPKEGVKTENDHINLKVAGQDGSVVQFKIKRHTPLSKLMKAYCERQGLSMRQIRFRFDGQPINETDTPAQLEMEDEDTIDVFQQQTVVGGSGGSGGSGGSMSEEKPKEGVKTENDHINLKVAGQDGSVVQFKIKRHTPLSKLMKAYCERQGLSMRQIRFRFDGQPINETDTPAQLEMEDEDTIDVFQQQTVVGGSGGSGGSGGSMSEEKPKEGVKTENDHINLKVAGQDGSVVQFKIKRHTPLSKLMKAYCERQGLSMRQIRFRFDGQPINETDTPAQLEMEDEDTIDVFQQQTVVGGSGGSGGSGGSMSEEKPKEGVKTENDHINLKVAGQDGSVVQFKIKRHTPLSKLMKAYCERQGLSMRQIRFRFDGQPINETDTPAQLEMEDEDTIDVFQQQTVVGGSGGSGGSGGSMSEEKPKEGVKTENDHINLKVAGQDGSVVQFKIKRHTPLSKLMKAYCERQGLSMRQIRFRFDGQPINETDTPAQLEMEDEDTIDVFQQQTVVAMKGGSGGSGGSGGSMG

On to B1, for which the binding result in assay [1] and in assay [2] was “binds” each time.
As to B2, the binding result in assay [3] and in assay [4] was “binds” each time.
Regarding B3, the binding result in assay [5] and in assay [6] was “binds” throughout.
As to B4, the binding result in assay [7] is given as “binds”.
As to B5, in the assay with death receptor 5 (DR5), the “apoptotic ratio of SJSA-1 cells, Annexin V-FITC/PI flow cytometry, 4 h; (SH3)5-DNB (Green) added together with (PRMH)5-CNB (Red) at 100 nM” value is roughly 58.4%.
